This is an account of results in the nanobody polyreactivity screen of Harvey et al. (2022).

The data set is described as follows: yeast display, Sf9 membrane polyspecificity reagent, FACS + sequencing; frameworks hold sequencing errors. In outline: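 Galactose induction of a Saccharomyces cerevisiae BJ5465 synthetic nanobody display library ran 36–48 hours. The cells were then stained for 1 hour at 4 °C with 10% biotinylated, detergent-solubilized Sf9 membrane reagent, pulled down on streptavidin microbeads and FACS-sorted into low and high (top ~1%) gates on expression and reagent-binding fluorescence. Labels for polyreactivity follow the gate of origin.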
As for “QVQLVESGGGLVQAGGSLRLSCAASGITFGGNAMGWYRQDPGKERELVAAISSSGGSTYYADSVKGRFTISRDNAKNTVYLQMNSLKPEDTAVYYCAARNRYPLRFYYWGQGTQVTVSS”, the “polyreactivity (PSR sort gate)” value is reported as “high polyreactivity”.
As to “QVQLVESGGGLVQAGGSLRLSCAASGITFGLYAMGWYRQAPGKERELVAAITWRGGSTYYADSVKGRFTISRDNAKNTVYLQMNSLKPEDTAVYYCAADFSGYSDDYWGQGTQVTVSS”, the “polyreactivity (PSR sort gate)” value is on record as “high polyreactivity”.
For the sequence “QVQLVESGGGLVQAGGSLRLSCAASGITFGRKTMGWYRQAPGKERELLAAIDSGGNTYADSVKGRFTISRDNAKNTDYLEMNSLKPEDTAVYYCAVDGGEFYSYGYWGLGTQVTVSS”, the “polyreactivity (PSR sort gate)” value is given as “low polyreactivity”.
As for “QVQLVESGGGLVQAGGSLRLSCAASGITFGRNTMAWYIQAPGKERELVAAIDSGGNTYADSVKGRFTISRDNAKITVDLQMNSLKQEDTSVYYCAVVWVWDVWFLVYYWGQGTQVTVSS”, the “polyreactivity (PSR sort gate)” value is reported as “low polyreactivity”.
For “QVQLVESGGGLVQAGGSLRLSCAASGITFGRNTMGWSRQAPGKEREMVASITRGGNTNYADSVKGRFTISRDNAKNTVYLQLNSLKPEDTAVYYCAARSTYRVSHVDYWGQGTQVTVSS”, the “polyreactivity (PSR sort gate)” value was “low polyreactivity”.
For the sequence “QVQLVESGGGLVQAGGSLRLSCAASGITFGRNTMGWYRPAPGKERELVAAIDSGGNTYADSVKGRFTISRDNAKNTVYLQMNSLKAEDTAVYYCAVDGGEFSSYGYWGQGTQVTVSS”, the “polyreactivity (PSR sort gate)” value is reported as “low polyreactivity”.
Regarding “QVQLVESGGGLVQAGGSLRLSCAASGITFGRNTMGWYRQAPGKERELVASINKSGGSTYYADSVKGRFTISRDNAKNTVYLQMNSLKPEDTAVYYCAARTGWPRVGFLYPAHVGFDYWGQGTQVTVSS”, the “polyreactivity (PSR sort gate)” value is recorded as “low polyreactivity”.
For “QVQLVESGGGLVQAGGSLRLSCAASGITFGRNTMGWYRQPPGKERELVAAIDSGGNTYADSVKGRFTISRDNAKNTVYLQMNSLKPEDTAVYYCAVDGGEFSSYGYWVQGTQVTVSS”, the “polyreactivity (PSR sort gate)” value is recorded as “low polyreactivity”.
On to “QVQLVESGGGLVQAGGSLRLSCAASGITFGRYAMGWYRQAPGKERELVAAISWSGGSTYYADSVKGRFTISRDNANNTVYLQMNRLKPEDTAVYYCNVVFRFNSFDYYYWGQGSQVTVSS”, for which the “polyreactivity (PSR sort gate)” value is “high polyreactivity”.
In the case of “QVQLVESGGGLVQAGGSLRLSCAASGITFGRYVMGWYRQAPGKERELVATISSGGRTKYADSVKGRFSISRDNAKNTVYLQMNSLKPEDTAGYYCNAESPKWPWYSGFDYWGQGTQVTVSS”, the “polyreactivity (PSR sort gate)” value is given as “high polyreactivity”.
With “QVQLVESGGGLVQAGGSLRLSCAASGITFGSYAMGWYRQAPGKERELVAAITWRGGTTYYADSVKARFTISRDNAKNTVYLQMNSLKPEDTAVYYCNTAWTGYPRYQYGGNYWGQGTQVTVSS”, the “polyreactivity (PSR sort gate)” value is listed as “high polyreactivity”.
Then “QVQLVESGGGLVQAGGSLRLSCAASGITFGVNTMGWYRQAPGKERELVAAITWRGGSTYYADSVKGRFTISRDNAKNTVYLQMNSLKPEDTAVYYCAAQPIWPGGQELDYWGQGTQVTVSS”, with “low polyreactivity”; and “QVQLVESGGGLVQAGGSLRLSCAASGITFGYYAMGWYRQAPGKERELVASISWSGDSTYYADSVKGRFTISRDNAKNTVYLQMNSLKPEDTAVYYCNRGSSWEYGAEYNYWGQGTQVTVSS”, with “low polyreactivity”; and “QVQLVESGGGLVQAGGSLRLSCAASGITFGYYDMGWYRQAPGKERELVAAISRGGGRTYYADSVKGRFTISRDNAKNTVYLQMNSLKPEDSAVYYCAAPSRYGGRGRPTLYDYWGQGTQVTVSS”, with “high polyreactivity”.
With “QVQLVESGGGLVQAGGSLRLSCAASGITFHGYAMGWDRQAPGKERELVAAISDSGSSTYYADSVKGRFTISRDNAKNTVYLQMNSLKPEHTAVYYCAAVSGFYDQYDYWGQGTQVTVSS”, the “polyreactivity (PSR sort gate)” value is reported as “low polyreactivity”.
In the case of “QVQLVESGGGLVQAGGSLRLSCAASGITFHRYDMVWYRQAPGKERELVADITWSGGSTYYADSVKVRFTISRDNAKNTVYLQMNSLKPEDTAVYYCAADASTYTYTPYDYWGQGTQVTVSS”, the “polyreactivity (PSR sort gate)” value is reported as “low polyreactivity”.
Turning to “QVQLVESGGGLVQAGGSLRLSCAASGITFIGYVMGWYRQAPGKERELVAAISRSGASTYYADSVKGRFTISRDNAKNTVYLQMNSLKPEDTAVYYCATVRYHPAYYYWGQGTQVTVSS”, the “polyreactivity (PSR sort gate)” value is on record as “high polyreactivity”.
Then “QVQLVESGGGLVQAGGSLRLSCAASGITFINYDMGWYRQAPGKERELVAAISQIGTSTYYADSVKGRFTISRDNAKNTVYLQMNSLKPEDTAVYYCNARYISTGFRYNYWGQGTQVTVSS”, with “high polyreactivity”.
On to “QVQLVESGGGLVQAGGSLRLSCAASGITFIRYAMGWYRQAPGKERELVAVITRSGGRTYYADSVKGRFTISRDNAKNTVYLQMNSLKPEDTAVYYCAARAYGYDEYEYWGQGTQVTVSS”, for which the “polyreactivity (PSR sort gate)” value is “high polyreactivity”.
For “QVQLVESGGGLVQAGGSLRLSCAASGITFITYAMGWYRQAPGKERELVAAISIRGGSTYYADSVKGRFTISRDNAKNTVYLQMNSLKPEDTAVYYCAKDNRSYTYDYWGQGTQVTVSS”, the “polyreactivity (PSR sort gate)” value is “low polyreactivity”.
“QVQLVESGGGLVQAGGSLRLSCAASGITFITYVMGWYRQAPGKERELVAAISLRGGRTSYADSVKGRFTISRDNAKNTVYLQMNSLKPEDTAVYYCAARAYYTRYDFWGQGTQVTVSS”: the “polyreactivity (PSR sort gate)” value is given as “high polyreactivity”.
Then “QVQLVESGGGLVQAGGSLRLSCAASGITFKRNAMGWYRQAPGKERELVAAISTTGGRTYYADSVKGRFTISRDNAKNTVYLQMNSLKPEDTAVYYCAARGGPVTYDYWGQGTQVTVSS”, with “high polyreactivity”; and “QVQLVESGGGLVQAGGSLRLSCAASGITFKTYDMGRYRQAPGKERELVATINRGSRTNYADSVKGRFTISRDNAKNTVYLQMNSLKPEDTAVYYCSAHDTTFIPSPDGDYLGQGTQVTVSS”, with “low polyreactivity”; and “QVQLVESGGGLVQAGGSLRLSCAASGITFKYNAMAWYRQAPGKEMELVAAISSGGNTYYADSVKGRFTISRDNAKNTVYLQMNSLKPEDTAVYYCAAPSYDTLWHDYWGQGTQVTVSS”, with “low polyreactivity”.
With “QVQLVESGGGLVQAGGSLRLSCAASGITFKYYAMGWYRQAPGKERELVAAITSGTRTNYADSVKGRFTISRDNAKNTVYLQMNSLKPEDTAVYYCAKVGSWYTSHRFGYWGHGTQVTVSS”, the “polyreactivity (PSR sort gate)” value was “high polyreactivity”.
The entry for “QVQLVESGGGLVQAGGSLRLSCAASGITFLDNDMGWYRQAPVKERELVAAITSGVSTYYADSVKGRFTISRDNAKNTVYLQMNSLKPEDTAVYYCAADRPDVAGDYGGQGTQVTVSS” is “low polyreactivity”.
On to “QVQLVESGGGLVQAGGSLRLSCAASGITFLDNVMGWYRQAPGKERELVADINSIGTSTSYADSVKGRFTISRDNAKNTVYLQMNSLKPEDTAVYYCAADTGLEDYDYWGQGTQVTVSS”, for which the “polyreactivity (PSR sort gate)” value is “low polyreactivity”.
As to “QVQLVESGGGLVQAGGSLRLSCAASGITFLNYAMGWYRQAPGKERELVAAISWSGGRTYYADSVKGRFTISRDNGKNTVYLQMNSLKPEDTAVYYCAADRGVNSYGYWGQGTQVTVSS”, the “polyreactivity (PSR sort gate)” value is reported as “high polyreactivity”.
Turning to “QVQLVESGGGLVQAGGSLRLSCAASGITFLNYAMGWYRQAPGKERELVAAISWSRGRTYYADSVKGRFTISRDNAKNTGYLQMNSLKPEDTAVYDCAADRGVNSYGYWGQGTQVTVSS”, the “polyreactivity (PSR sort gate)” value is “high polyreactivity”.
Turning to “QVQLVESGGGLVQAGGSLRLSCAASGITFLSNAMGWYRQAPGKERELVAAISRGGGTTYYADSVKGRFTISRDNAKNTVYLQMNSLKPEDTAVYYCATESTHTRRSWYEYWGQGTQVTVSS”, the “polyreactivity (PSR sort gate)” value is given as “high polyreactivity”.
Then “QVQLVESGGGLVQAGGSLRLSCAASGITFLVYVMGWYRQAPGKERELVAAISSGGSTYYADSVKGRFTISRDNAKNTVYVQMNSLKPEDTAVYYCAAERKLYGLYDYWGQGTQVTVSS”, with “low polyreactivity”; and “QVQLVESGGGLVQAGGSLRLSCAASGITFNDYTMGWYRQGPGKERELVAVNTKTGSRTYYADSVKGRFTISRDNAKNTVYLQMNSLKPEDTAVYYCNALYYIHYYQGYGYWGQGTQVTVSS”, with “high polyreactivity”; and “QVQLVESGGGLVQAGGSLRLSCAASGITFNQYVMGWYRQAPGKESELVAAISRSGATTYYADSVKGRFTISRDNAKNTVYLQMNSLKPEDTAVYYCAVRGSVSYTRYGYWGQGTQVTVSS”, with “high polyreactivity”.
For the sequence “QVQLVESGGGLVQAGGSLRLSCAASGITFNRNAMGWYRQAPGKERELVAAISSDGNTNYADSVKGRFTISRDNAKNTVYLQMNSLKPEDTAVYYCAAPVIQITDVWYDAETYPDYDYWGQGTQVTVSS”, the “polyreactivity (PSR sort gate)” value is “low polyreactivity”.
In the case of “QVQLVESGGGLVQAGGSLRLSCAASGITFNSYAKGWYRQAPGKERELVASISWIGGSTYYADSVKLRFTISRDNAKNTVYLQMNSLKPEDTAVYYCAVDKGTDYYYEVDYWGQGTQVTVSS”, the “polyreactivity (PSR sort gate)” value is on record as “low polyreactivity”.
In the case of “QVQLVESGGGLVQAGGSLRLSCAASGITFNVYAMGWYRQAPGKERELVAAISYNGGRTYYADSVKGRFTISRDNAKNTVYLPMNSLKPEDTAVYYCAAQWPWGPYDYWGQGTQVTVSS”, the “polyreactivity (PSR sort gate)” value is listed as “high polyreactivity”.
Then “QVQLVESGGGLVQAGGSLRLSCAASGITFNYYAMGWYRQAPGKERELVATINRSGGTTYYADSVKGRITISRDNAKNTVYLQMNSLKPEDTAVYYCNARYTSRGRYHSGYDYWGQGTQVTVSS”, with “high polyreactivity”; and “QVQLVESGGGLVQAGGSLRLSCAASGITFPANARGWYRPAPGKERELVAAISSSGDSTYYADSVKGRFTISRDNAKNTVYFQMNILKPEDTAVYYCAAKDYVWGQGTQVTVSS”, with “low polyreactivity”.
For the sequence “QVQLVESGGGLVQAGGSLRLSCAASGITFPAYAMGWYRQAPGKERELVAAISRRGGSTYYADSVKGRFTISRDYAKNTVYLQMNSLKPEDTAVYYCNADIKQRSDRYDYWGQGTQVTVSS”, the “polyreactivity (PSR sort gate)” value is listed as “high polyreactivity”.
On to “QVQLVESGGGLVQAGGSLRLSCAASGITFPDYAMGWYRQAPGKERELVATISSSGGNTYYADSVKGRFTISRDNAKNTVYLQMNSLKPEDTAVYYCATVSYYWGYDYWGQGTQVTVSS”, for which the “polyreactivity (PSR sort gate)” value is listed as “low polyreactivity”.
Then “QVQLVESGGGLVQAGGSLRLSCAASGITFPDYDMGWYRQAPGKERELVAAITYRSGSTYYADSVKGRFTISRDNAKNTVYLQMNSLKPEDTAVYYCNKYGQVPGYFSLDYWGQGTQVTVSS”, with “high polyreactivity”.
